The supplement of paper PMC9112550, “Optimization of the antimicrobial peptide Bac7 by deep mutational scanning” (BMC Biology, 2022)

Tested on: Escherichia coli TOP10
Assay: shrunken log2 fold change of peptide-encoding DNA abundance (4.5 h post-induction vs induction); higher = less antimicrobial activity (less host growth inhibition)
Conditions: time post-induction: 4.5 h; library: site-saturation at positions 5, 18, 19, 20
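Also: peptides expressed intracellularly from a pBAD plasmid library in pooled LB shake-flask culture, induced with 0.3% L-arabinose, DNA abundance read by NGS, three biological replicates, DESeq2 with apeglm shrinkage.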

| Sequence | shrunken log2 fold change |
| --- | --- |
| RRIRMRPPRLPRPRPRPSPKPRP | 0.593 |
| RRIRMRPPRLPRPRPRPSPMPRP | 0.369 |
| RRIRMRPPRLPRPRPRPSPYPRP | -0.0611 |
| RRIRMRPPRLPRPRPRPSQGPRP | 0.179 |
| RRIRMRPPRLPRPRPRPSSCPRP | 0.112 |
| RRIRMRPPRLPRPRPRPSSMPRP | -0.0815 |
| RRIRMRPPRLPRPRPRPSVNPRP | -0.0473 |
| RRIRMRPPRLPRPRPRPSVPPRP | -0.0568 |
| RRIRMRPPRLPRPRPRPSVVPRP | 0.124 |
| RRIRMRPPRLPRPRPRPSWEPRP | 0.302 |
| RRIRMRPPRLPRPRPRPTDFPRP | -0.0135 |
| RRIRMRPPRLPRPRPRPTDYPRP | 0.166 |
| RRIRMRPPRLPRPRPRPTEAPRP | 0.0796 |
| RRIRMRPPRLPRPRPRPTFYPRP | -0.157 |
| RRIRMRPPRLPRPRPRPTGKPRP | 0.562 |
| RRIRMRPPRLPRPRPRPTGRPRP | 1.24 |
| RRIRMRPPRLPRPRPRPTHIPRP | -0.363 |
| RRIRMRPPRLPRPRPRPTIAPRP | 0.26 |
| RRIRMRPPRLPRPRPRPTIGPRP | 0.277 |
| RRIRMRPPRLPRPRPRPTISPRP | 0.0688 |
| RRIRMRPPRLPRPRPRPTKKPRP | 0.0359 |
| RRIRMRPPRLPRPRPRPTKQPRP | 0.296 |
| RRIRMRPPRLPRPRPRPTKSPRP | 0.459 |
| RRIRMRPPRLPRPRPRPTLRPRP | 0.334 |
| RRIRMRPPRLPRPRPRPTNRPRP | 0.282 |

| Sequence | shrunken log2 fold change |
| --- | --- |
| RRIRMRPPRLPRPRPRPTPWPRP | 0.844 |
| RRIRMRPPRLPRPRPRPTPYPRP | 0.2 |
| RRIRMRPPRLPRPRPRPTREPRP | 0.947 |
| RRIRMRPPRLPRPRPRPTRFPRP | 0.261 |
| RRIRMRPPRLPRPRPRPTRTPRP | 2.22 |
| RRIRMRPPRLPRPRPRPTSCPRP | 0.415 |
| RRIRMRPPRLPRPRPRPTSGPRP | 1.06 |
| RRIRMRPPRLPRPRPRPTSSPRP | 0.148 |
| RRIRMRPPRLPRPRPRPTTCPRP | 0.0613 |
| RRIRMRPPRLPRPRPRPTTIPRP | -0.198 |
| RRIRMRPPRLPRPRPRPTVMPRP | 0.563 |
| RRIRMRPPRLPRPRPRPTWEPRP | 0.312 |
| RRIRMRPPRLPRPRPRPTYNPRP | -0.361 |
| RRIRMRPPRLPRPRPRPTYTPRP | -0.173 |
| RRIRMRPPRLPRPRPRPVCIPRP | -0.0455 |
| RRIRMRPPRLPRPRPRPVCQPRP | 0.13 |
| RRIRMRPPRLPRPRPRPVDYPRP | -0.0574 |
| RRIRMRPPRLPRPRPRPVEMPRP | -0.0685 |
| RRIRMRPPRLPRPRPRPVEPPRP | 0.207 |
| RRIRMRPPRLPRPRPRPVFDPRP | 0.184 |
| RRIRMRPPRLPRPRPRPVFEPRP | 0.59 |
| RRIRMRPPRLPRPRPRPVHIPRP | 0.00544 |
| RRIRMRPPRLPRPRPRPVHKPRP | -0.0081 |
| RRIRMRPPRLPRPRPRPVKHPRP | 0.0894 |
| RRIRMRPPRLPRPRPRPVKKPRP | 0.0481 |

| Sequence | shrunken log2 fold change |
| --- | --- |
| RRIRMRPPRLPRPRPRPVMAPRP | 0.266 |
| RRIRMRPPRLPRPRPRPVPKPRP | 1.11 |
| RRIRMRPPRLPRPRPRPVPLPRP | -0.0409 |
| RRIRMRPPRLPRPRPRPVQWPRP | 0.155 |
| RRIRMRPPRLPRPRPRPVRIPRP | 0.238 |
| RRIRMRPPRLPRPRPRPVRYPRP | 0.64 |
| RRIRMRPPRLPRPRPRPVSGPRP | 0.594 |
| RRIRMRPPRLPRPRPRPVSVPRP | 0.699 |
| RRIRMRPPRLPRPRPRPVVVPRP | -0.0177 |
| RRIRMRPPRLPRPRPRPVWHPRP | 0.137 |
| RRIRMRPPRLPRPRPRPWAMPRP | 0.0684 |
| RRIRMRPPRLPRPRPRPWCNPRP | -0.016 |
| RRIRMRPPRLPRPRPRPWCWPRP | 0.366 |
| RRIRMRPPRLPRPRPRPWDSPRP | -0.152 |
| RRIRMRPPRLPRPRPRPWFAPRP | 0.18 |
| RRIRMRPPRLPRPRPRPWGNPRP | -0.00136 |
| RRIRMRPPRLPRPRPRPWHLPRP | -0.00137 |
| RRIRMRPPRLPRPRPRPWMAPRP | -0.0347 |
| RRIRMRPPRLPRPRPRPWMQPRP | 2.38 |
| RRIRMRPPRLPRPRPRPWPEPRP | 0.735 |
| RRIRMRPPRLPRPRPRPWQAPRP | 0.00735 |
| RRIRMRPPRLPRPRPRPWRFPRP | 0.0528 |
| RRIRMRPPRLPRPRPRPWRSPRP | 0.166 |
| RRIRMRPPRLPRPRPRPWSVPRP | -0.0283 |
| RRIRMRPPRLPRPRPRPWTQPRP | -0.0562 |

| Sequence | shrunken log2 fold change |
| --- | --- |
| RRIRMRPPRLPRPRPRPWVIPRP | 0.0191 |
| RRIRMRPPRLPRPRPRPWVTPRP | -0.15 |
| RRIRMRPPRLPRPRPRPWWDPRP | 0.142 |
| RRIRMRPPRLPRPRPRPWYHPRP | -0.00277 |
| RRIRMRPPRLPRPRPRPWYKPRP | 0.00884 |
| RRIRMRPPRLPRPRPRPWYMPRP | -0.147 |
| RRIRMRPPRLPRPRPRPYCNPRP | -0.189 |
| RRIRMRPPRLPRPRPRPYDCPRP | -0.113 |
| RRIRMRPPRLPRPRPRPYDRPRP | 0.043 |
| RRIRMRPPRLPRPRPRPYFSPRP | -0.177 |
| RRIRMRPPRLPRPRPRPYGSPRP | -0.0489 |
| RRIRMRPPRLPRPRPRPYGYPRP | 0.0362 |
| RRIRMRPPRLPRPRPRPYHLPRP | 0.00229 |
| RRIRMRPPRLPRPRPRPYINPRP | -0.574 |
| RRIRMRPPRLPRPRPRPYIYPRP | -0.384 |
| RRIRMRPPRLPRPRPRPYKDPRP | -0.947 |
| RRIRMRPPRLPRPRPRPYKMPRP | -0.277 |
| RRIRMRPPRLPRPRPRPYLVPRP | -0.016 |
| RRIRMRPPRLPRPRPRPYMLPRP | -0.0122 |
| RRIRMRPPRLPRPRPRPYNCPRP | -0.0909 |
| RRIRMRPPRLPRPRPRPYPQPRP | 0.0818 |
| RRIRMRPPRLPRPRPRPYQQPRP | -0.00196 |
| RRIRMRPPRLPRPRPRPYQVPRP | -0.393 |
| RRIRMRPPRLPRPRPRPYRPPRP | -0.117 |
| RRIRMRPPRLPRPRPRPYSFPRP | -0.266 |

| Sequence | shrunken log2 fold change |
| --- | --- |
| RRIRMRPPRLPRPRPRPYTGPRP | 0.042 |
| RRIRMRPPRLPRPRPRPYVKPRP | -0.209 |
| RRIRMRPPRLPRPRPRPYVVPRP | 0.00957 |
| RRIRMRPPRLPRPRPRPYVYPRP | -0.175 |
| RRIRMRPPRLPRPRPRPYWDPRP | -0.0427 |
| RRIRMRPPRLPRPRPRPYWNPRP | -1.04 |
| RRIRMRPPRLPRPRPRPYWWPRP | 0.0238 |
| RRIRMRPPRLPRPRPRPYWYPRP | -0.0684 |
| RRIRNRPPRLPRPRPRPAAVPRP | 0.158 |
| RRIRNRPPRLPRPRPRPADRPRP | -0.00994 |
| RRIRNRPPRLPRPRPRPAESPRP | 0.37 |
| RRIRNRPPRLPRPRPRPAFQPRP | -0.0462 |
| RRIRNRPPRLPRPRPRPAFRPRP | 0.0513 |
| RRIRNRPPRLPRPRPRPAGCPRP | 0.00181 |
| RRIRNRPPRLPRPRPRPAHDPRP | 0.055 |
| RRIRNRPPRLPRPRPRPAIIPRP | 0.154 |
| RRIRNRPPRLPRPRPRPAILPRP | -0.101 |
| RRIRNRPPRLPRPRPRPAISPRP | -0.128 |
| RRIRNRPPRLPRPRPRPAKIPRP | -0.405 |
| RRIRNRPPRLPRPRPRPAKKPRP | -0.0505 |
| RRIRNRPPRLPRPRPRPAKPPRP | -0.00229 |
| RRIRNRPPRLPRPRPRPALVPRP | 0.461 |
| RRIRNRPPRLPRPRPRPANEPRP | -0.00326 |
| RRIRNRPPRLPRPRPRPANFPRP | -0.193 |
| RRIRNRPPRLPRPRPRPAPAPRP | 0.959 |

| Sequence | shrunken log2 fold change |
| --- | --- |
| RRIRNRPPRLPRPRPRPAPDPRP | 0.147 |
| RRIRNRPPRLPRPRPRPATDPRP | 0.14 |
| RRIRNRPPRLPRPRPRPATQPRP | -0.0108 |
| RRIRNRPPRLPRPRPRPAVYPRP | -0.0398 |
| RRIRNRPPRLPRPRPRPAWAPRP | -0.0271 |
| RRIRNRPPRLPRPRPRPAYFPRP | -0.175 |
| RRIRNRPPRLPRPRPRPAYIPRP | -0.786 |
| RRIRNRPPRLPRPRPRPCADPRP | 1.47 |
| RRIRNRPPRLPRPRPRPCAFPRP | -0.071 |
| RRIRNRPPRLPRPRPRPCCPPRP | -0.0502 |
| RRIRNRPPRLPRPRPRPCDRPRP | 0.0883 |
| RRIRNRPPRLPRPRPRPCEIPRP | 0.0361 |
| RRIRNRPPRLPRPRPRPCERPRP | -0.00992 |
| RRIRNRPPRLPRPRPRPCGGPRP | -0.0209 |
| RRIRNRPPRLPRPRPRPCGSPRP | -0.0353 |
| RRIRNRPPRLPRPRPRPCKWPRP | -0.339 |
| RRIRNRPPRLPRPRPRPCLMPRP | -0.299 |
| RRIRNRPPRLPRPRPRPCNNPRP | -0.0122 |
| RRIRNRPPRLPRPRPRPCPMPRP | 0.151 |
| RRIRNRPPRLPRPRPRPCPQPRP | 0.0087 |
| RRIRNRPPRLPRPRPRPCPTPRP | -0.0624 |
| RRIRNRPPRLPRPRPRPCRPPRP | -0.197 |
| RRIRNRPPRLPRPRPRPCSVPRP | 0.0192 |
| RRIRNRPPRLPRPRPRPCTAPRP | 0.022 |
| RRIRNRPPRLPRPRPRPCTSPRP | -0.0712 |
